These results are taken from PMC11532998.

Where “and” joins values, the source holds several entries; their conditions need not be identical. Equal entries are not always repeated.

Assay [1] deals with T1, encapsulin from Mycobacterium smegmatis (UniProt ID: I7G8Y9), C-terminal Strep-tag (Mycobacterium smegmatis mc2 155). Nature of the assay: cryo-EM structure; same data set of purified Enc{tdNfsB}; the shell was subtracted from the particles, 2-D classification and low-resolution 3-D reconstruction of the interior; cargo and shell co-expressed in E. coli.
Assay [2] addresses T1, encapsulin from Mycobacterium smegmatis. Nature of the assay: SDS-PAGE gel densitometry of the co-purified complex; Enc{tdNfsB} at 500 ug/mL on a 15% gel, Coomassie; calibration curves of Enc and tdNfsB; molar ratio of tdNfsB (52.3 kDa) to Enc shell (1804.2 kDa); repeated twice.
The target of assay [3] is NfsB with C-terminal encapsulin localization sequence (cargo of Enc{NfsB}) (E. coli | M. smegmatis).

The substance “tandem NfsB with C-terminal encapsulin localization sequence (cargo of Enc{tdNfsB}) (enzyme)” had a stoichiometry N (tdNfsB per capsid) in assay [1] of 6. Further, in assay [2], the stoichiometry N (tdNfsB units per shell) is 10 and 13.
Regarding “NfsB with C-terminal encapsulin localization sequence (cargo of Enc{NfsB}) (enzyme)”, the conversion of caged-hydroxy-CBT after 60 min by Enc{NfsB} (coupled luciferase assay), against 50% for free NfsB and tdNfsB and a comparable conversion for Enc{tdNfsB} in assay [3] came out at 10%.
